Source: article PMC5626764 (Nature Communications, 2017)

B1: ephrinB2-229 (S-tagged monomeric ephrinB2 ectodomain, residues 25-229) (domain or fragment, human, UniProt P52799 25-229, looked up)
chain: SKSIVLEPIYWNSSNSKFLPGQGLVLYPQIGDKLDIICPKVDSKTVGQYEYYKVYMVDKDQADRCTIKKENTPLLNCAKPDQDIKFTIKFQEFSPNLWGLEFQKNKDYYIISTSNGSLEGLDNQEGGVCQTRAMKILMKVGQDASSAGSTRNKDPTRRPELEAGTNGRSSTTSPFVKPNPGSSTDGNSAGHSGNNILGSEVALFA
B2: ephrinB2-Fc (human ephrinB2 residues 1-229, Factor XA cleavage site, human IgG1 residues 100-330) (Fc fusion)
chain: IVLEPIYWNSSNSKFLPGQGLVLYPQIGDKLDIICPKVDSKTVGQYEYYKVYMVDKDQADRCTIKKENTPLLNCAKPDQDIKFTIKFQEFSPNLWGLEFQKNKDYYIISTSNGSLEGLDNQEGGVCQTRAMKILMKVGQDASSAGSTRNKDPTRRPELEAGTNGRSSTTSPFVKPNPGSSTDGNSAGHSGNNILGSEVALFA
notes: also called dimeric ephrinB2; dimeric receptor
B3: Wildtype NiV G ectodomain (Nipah virus attachment glycoprotein G, residues 71-602, N-terminal His6-tag) (domain or fragment)
chain: QNYTRSTDNQAVIKDALQGIQQQIKGLADKIGTEIGPKVSLIDTSSTITIPANIGLLGSKISQSTASINENVNEKCKFTLPPLKIHECNISCPNPLPFREYRPQTEGVSNLVGLPNNICLQKTSNQILKPKLISYTLPVVGQSGTCITDPLLAMDEGYFAYSHLERIGSCSRGVSKQRIIGVGEVLDRGDEVPSLFMTNVWTPPNPNTVYHCSAVYNNEFYYVLCAVSTVGDPILNSTYWSGSLMMTRLAVKPKSNGGGYNQHQLALRSIEKGRYDKVMPYGPSGIKQGDTLYFPAVGFLVRTEFKYNDSNCPITKCQYSKPENCRLSMGIRPNSHYILRSGLLKYNLSDGENPKVVFIEISDQRLSIGSPSKIYDSLGQPVFYQASFSWDTMIKFGDVLTVNPLVVNWRNNTVISRPGQSQCPRFNTCPEICWEGVYNDAFLIDRINWISAGVFLDSNQTAENPVFTVFKDNEILYRAQLASEDTNAQKTITNCFLLKNKIWCISLVEIYDTGDNVIRPKLFAVKIPEQCT
B4: Stag-ephrinB2-167 (S-tagged monomeric ephrinB2 globular domain, residues 25-167) (domain or fragment, human, UniProt P52799 25-167, looked up)
chain: SKSIVLEPIYWNSSNSKFLPGQGLVLYPQIGDKLDIICPKVDSKTVGQYEYYKVYMVDKDQADRCTIKKENTPLLNCAKPDQDIKFTIKFQEFSPNLWGLEFQKNKDYYIISTSNGSLEGLDNQEGGVCQTRAMKILMKVGQD
B5: ephrinB2-167 from His6-ephrinB2-167 with the His6-tag removed by enterokinase cleavage (domain or fragment, human, UniProt P52799 25-167, looked up)
chain: B4 chain
notes: also called monomeric ephrinB2

Legend:
[1] = target: B3; assay: ELISA; conditions: both partners purified
[2] = target: T1, SHG-labeled wildtype NiV G ectodomain (Nipah virus, UniProt Q9IH62 71-602); assay: second harmonic generation (SHG); conditions: both partners purified
T1 sequence: B3 chain

[3] = target: the molecule itself; assay: negative stain electron microscopy

B1
Kd [1]: 33.2 nM

B2
ΔSHG [2]: -12.9%
Kd [1]: 0.088 nM

B3
stoichiometry N [3]: 4

B4
Kd [1]: 11.9 nM

B5
ΔSHG [2]: -27.9%
